Reference: article PMC5589656, “Disruption of DNA repair in cancer cells by ubiquitination of a destabilising dimerization domain of nucleotide excision repair protein ERCC1” (Oncotarget, 2017)

Target: the molecule itself
Experiment: semi-native western blot (SDS PAGE gel, non-boiled and non-reduced samples); input samples of ERCC1-transfected A375 cells, blotted with anti-ERCC1 antibody; with or without 25 uM cisplatin for 5 h

B1: ERCC1 (1-297), full-length wild-type human ERCC1, Myc-tagged and Flag-tagged copies (natural protein, UniProt P07992 1-297, looked up)
chain: MDPGKDKEGVPQPSGPPARKKFVIPLDEDEVPPGVAKPLFRSTQSLPTVDTSAQAAPQTYAEYAISQPLEGAGATCPTGSEPLAGETPNQALKPGAKSNSIIVSPRQRGNPVLKFVRNVPWEFGDVIPDYVLGQSTCALFLSLRYHNLHPDYIHGRLQSLGKNFALRVLLVQVDVKDPQQALKELAKMCILADCTLILAWSPEEAGRYLETYKAYEQKPADLLMEKLEQDFVSRVTECLTTVKSVNKTDSQTLLTTFGSLEQLIAASREDLALCPGLGPQKARRLFDVLHEPFLKVP
notes: ERCC1, human, full length, residues 1-297 (297 amino acid protein); Self-association was tested with two differently tagged copies; Each copy carries only one of the two tags: the Myc-tagged copy was precipitated and the Flag-tagged copy was detected; The Myc copy is in pcDNA3.1(-)/myc-His A, which as far as I recall adds a C-terminal myc-His; Construct details are in the Supplementary …
- stoichiometry N: 2
